{"source": "paper PMC11842843", "about": "“Structural basis for malate-driven, pore lipid-regulated activation of the Arabidopsis vacuolar anion channel ALMT9” (Nature Communications, 2025)", "proteins": {"B1": {"name": "AtALMT9-superfolder GFP (sfGFP)-hemagglutinin (HA) tag-decahistidine (H10) tag (natural protein, Arabidopsis thaliana, UniProt Q9LS46 1-598, looked up)", "chain": "MAAKQGSFRHGILEKRERLLSNNGFSDFRFTDIESNDLLENENCGRRTRLCCCCSCGNLSEKISGVYDDAKDVARKAWEMGVSDPRKIVFSAKIGLALTIVALLIFYQEPNPDLSRYSVWAILTVVVVFEFTIGATLSKGFNRALGTLSAGGLALGMAELSTLFGDWEEIFCTLSIFCIGFLATFMKLYPSMKAYEYGFRVFLLTYCYILISGFRTGQFIEVAISRFLLIALGAGVSLGVNMFIYPIWAGEDLHNLVVKNFMNVATSLEGCVNGYLRCLEYERIPSKILTYQASEDPVYKGYRSAVESTSQEESLMSFAIWEPPHGPYKSFNYPWKNYVKLSGALKHCAFTVMALHGCILSEIQAPEERRQVFRQELQRVGVEGAKLLRELGEKVKKMEKLGPVDLLFEVHLAAEELQHKIDKKSYLLVNSECWEIGNRATKESEPQELLSLEDSDPPENHAPPIYAFKSLSEAVLEIPPSWGEKNHREALNHRPTFSKQVSWPARLVLPPHLETTNGASPLVETTKTYESASALSLATFASLLIEFVARLQNVVDAFKELSQKANFKEPEIVTTGTDVEFSGERVGLGQKIRRCFGM", "notes": "cloned into modified pACEBac2-sfGFP-HA-H10; No tag cleavage is described; The final models lack the flexible N-terminus, the C-terminus and two long loops (between H1 and H2, and between H5 and H6); also called ALMT9 from Arabidopsis thaliana; source: Sf9 cells (baculovirus), purified (TALON resin, Superdex 200 increase) in LMNG with or without CHS"}}, "molecular_target": "the molecule itself", "test": "cryo-EM structure; purified AtALMT9-sfGFP-HA-H10 in LMNG; three datasets (LMNG + CHS; LMNG + CHS + 10 mM malate; LMNG + 10 mM malate); 20 mM HEPES pH 7.6, 150 mM NaCl, 1 mM TCEP; nine lipid-bound classes", "data": [{"protein": "B1", "values": [{"measurement": "stoichiometry N", "value": 2}]}]}
